Target: R1-32 (human)
Experiment: BLI

Substance: SARS-CoV-2 Omicron BA.2.11 RBD (from UniProt P0DTC2 332-527) (domain or fragment)
- Kd: > 55 nM

From paper doi:10.64898/2025.12.19.695307
